The chains are these.
B1: MSLN targeting trispecific protein 5D2 (protein, part only; not given: Albumin and CD3 binders, linkers, part only)
chain, part: QVQLGESGGGLVQAGGSLRLSCAASGSIFSPNAMIWHRQAPGKQREPVASINSSGSTNYGDSVKGRFTVSRDIVKNTMYLQMNSLKPEDTAVYYCSYSDFRRGTQYWGQGTQVTVSSHHHHHH
B2: MSLN targeting trispecific protein 9H2 (protein, part only; not given: Albumin and CD3 binders, linkers, part only)
chain, part: QVQLVESGGGLVQAGGSLRLSCAASGSTSSINTMYWYRQAPGKERELVAFISSGGSTNVRDSVKGRFSVSRDSAKNIVYLQMNSLTPEDTAVYYCNTYIPLRGTLHDYWGQGTQVTVSSHHHHHH
B3: MSLN targeting trispecific protein 10B3 (protein, part only; not given: Albumin and CD3 binders, linkers, part only)
chain, part: QVQLVESGGGLVQAGGSLRLSCAASGSTSSINTMYWYRQAPGKERELVAFISSGGSTNVRDSVKGRFSVSRDSAKNIVYLQMNSLKPEDTAVYYCNTYIPYGGTLHDFWGQGTQVTVSSHHHHHH
B4: MSLN targeting trispecific protein 5C2 (protein, part only; not given: Albumin and CD3 binders, linkers, part only)
chain, part: QVQLVESGGGLVQAGGSLRLSCAASGSTSSINTMYWFRQAPGEERELVATINRGGSTNVRDSVKGRFSVSRDSAKNIVYLQMNRLKPEDTAVYYCNTYIPYGGTLHDFWGQGTQVTVSSHHHHHH
B5: MSLN targeting trispecific protein 7H2 (protein, part only; not given: Albumin and CD3 binders, linkers, part only)
chain, part: QVQLVESGGGLVQAGGSLRLSCAFSGTTYTFDLMSWYRQAPGKQRTVVASISSDGRTSYADSVRGRFTISGENGKNTVYLQMNSLKLEDTAVYYCLGQRSGVRAFWGQGTQVTVSSHHHHHH
B6: MSLN targeting trispecific protein 6H2 (protein, part only; not given: Albumin and CD3 binders, linkers, part only)
chain, part: QVQLVESGGGLVQAGGSLRLSCAASGRTLSRYAMGWFRQAPGKERQFVAAISRSGGTTRYSDSVKGRFTISRDNAANTFYLQMNNLRPDDTAVYYCNVRRRGWGRTLEYWGQGTQVTVSSHHHHHH
B7: MSLN targeting trispecific protein 3G1 (protein, part only; not given: Albumin and CD3 binders, linkers, part only)
chain, part: QVRLVESGGGLVQAGESLRLSCAASGRPFSINTMGWYRQAPGKQRELVASISSSGDFTYTDSVKGRFTISRDNAKNTVYLQMNSLKPEDTAVYYCNARRTYLPRRFGSWGQGTQVTVSSHHHHHH
B8: MSLN targeting trispecific protein 2A4 (protein, part only; not given: Albumin and CD3 binders, linkers, part only)
chain, part: QVQLVESGGGLVQARGSLRLSCTASGRTIGINDMAWYRQAPGNQRELVATITKGGTTDYADSVDGRFTISRDNAKNTVYLQMNSLKPEDTAVYYCNTKRREWAKDFEYWGQGTQVTVSSHHHHHH
B9: MSLN targeting trispecific protein 6F3 (protein, part only; not given: Albumin and CD3 binders, linkers, part only)
chain, part: QVQPVESGGGLVQPGGSLRLSCVVSGSDFTEDAMAWYRQASGKERESVAFVSKDGKRILYLDSVRGRFTISRDIYKKTVYLQMDNLKPEDTGVYYCNSAPGAARNVWGQGTQVTVSSHHHHHH
B10: MSLN targeting trispecific protein 2A1 (protein, part only; not given: Albumin and CD3 binders, linkers, part only)
chain, part: QVQPVESGGGLVQPGGSLRLSCVVSGSDFTEDAMAWYRQASGKERESVAFVSKDGKRILYLDSVRGRFTISRDIDKKTVYLQMDNLKPEDTGVYYCNSAPGAARNYWGQGTQVTVSSHHHHHH
B11: MSLN targeting trispecific protein 9F3 (protein, part only; not given: Albumin and CD3 binders, linkers, part only)
chain, part: QVQLVESGGGLVQAGGSLRLSCAASGSIPSIEQMGWYRQAPGKQRELVAALTSGGRANYADSVKGRFTISGDNVRNMVYLQMNSLKPEDTAIYYCSAGRFKGDYAQRSGMDYWGKGTLVTVSSHHHHHH
B12: MSLN targeting trispecific protein 11F3 (protein, part only; not given: Albumin and CD3 binders, linkers, part only)
chain, part: QVQLVESGGGLVQAGGSLRLSCVASGRTSTIDTMYWHRQAPGNERELVAYVTSRGTSNVADSVKGRFTISRDNAKNTAYLQMNSLKPEDTAVYYCSVRTTSYPVDFWGQGTQVTVSSHHHHHH
B13: MSLN targeting trispecific protein 5H1 (protein, part only; not given: Albumin and CD3 binders, linkers, part only)
chain, part: QVQLVESGGGLVQPGGSLRLSCAASGGDWSANFMYWYRQAPGKQRELVARISGRGVVDYVESVKGRFTISRDNAKNTVYLQMNSLKPEDTAVYYCAVASYWGQGTQVTVSSHHHHHH
B14: MSLN targeting trispecific protein 2C2 (protein, part only; not given: Albumin and CD3 binders, linkers, part only)
chain, part: QVQLVESGGGLVQAGESRRLSCAVSGDTSKFKAVGWYRQAPGAQRELLAWINNSGVGNTAESVKGRFTISRDNAKNTVYLQMNRLTPEDTDVYYCRFYRRFGINKNYWGQGTQVTVSSHHHHHH
B15: MSLN targeting trispecific protein 7F1 (protein, part only; not given: Albumin and CD3 binders, linkers, part only)
chain, part: QVQLVESGGGLVQAGGSLRLSCAASAIGSINSMSWYRQAPGKQREPVAVITDRGSTSYADSVKGRFTISRDNAKNTVYLQMNSLKPEDTAIYTCHVIADWRGYWGQGTQVTVSSHHHHHH
B16: MSLN targeting trispecific protein 2F4 (protein, part only; not given: Albumin and CD3 binders, linkers, part only)
chain, part: QVQLVESGGGLVQAGGSLRLSCTTSTTFSINSMSWYRQAPGNQREPVAVITNRGTTSYADSVKGRFTISRDNARNTVYLQMDSLKPEDTAIYTCHVIADWRGYWGQGTQVTVSSHHHHHH
B17: MSLN targeting trispecific protein 2D1 (protein, part only; not given: Albumin and CD3 binders, linkers, part only)
chain, part: QVQLVESGGGLVQAGGSLRLSCAASTTSSINSMSWYRQAQGKQREPVAVITDRGSTSYADSVKGRFTISRDNAKNTVYLQMNSLKPEDTAIYTCHVIADWRGYWGQGTQVTVSSHHHHHH
B18: MSLN targeting trispecific protein 12C2 (protein, part only; not given: Albumin and CD3 binders, linkers, part only)
chain, part: QVQLVESGGGLVQTGGSLRLSCAASGLTFGVYGMEWFRQAPGKQREWVASHTSTGYVYYRDSVKGRFTISRDNAKSTVYLQMNSLKPEDTAIYYCKANRGSYEYWGQGTQVTVSSHHHHHH
B19: MSLN targeting trispecific protein 12D1 (protein, part only; not given: Albumin and CD3 binders, linkers, part only)
chain, part: QVRLVESGGGLVQAGGSLRLSCAASISAFRLMSVRWYRQDPSKQREWVATIDQLGRTNYADSVKGRFAISKDSTRNTVYLQMNMLRPEDTAVYYCNAGGGPLGSRWLRGRHWGQGTQVTVSSHHHHHH
B20: MSLN targeting trispecific protein 5D4 (protein, part only; not given: Albumin and CD3 binders, linkers, part only)
chain, part: QVQLVESGGGLVQAGGSLRLSCVASGRTDRITTMGWYRQAPGKQRELVATISNRGTSNYANSVKGRFTISRDNAKNTVYLQMNSLKPEDTAVYYCNARKWGRNYWGQGTQVTVSSHHHHHH
B21: MSLN targeting trispecific protein 5G2 (protein, part only; not given: Albumin and CD3 binders, linkers, part only)
chain, part: QVQLVESGGGLVQAGGSLRLSCAASGSTFGNKPMGWYRQAPGKQRELVAVISSDGGSTRYAALVKGRFTISRDNAKNTVYLQMESLVAEDTAVYYCNALRTYYLNDPVVFSWGQGTQVTVSSHHHHHH
B22: MSLN targeting trispecific protein 3F2 (protein, part only; not given: Albumin and CD3 binders, linkers, part only)
chain, part: QVQIVESGGGLVQAGGSLRLSCVASGLTYSIVAVGWYRQAPGKEREMVADISPVGNTNYADSVKGRFTISKENAKNTVYLQMNSLKPEDTAVYYCHIVRGWLDERPGPGPIVYWGQGTQVTVSSHHHHHH
B23: MSLN targeting trispecific protein 9B1 (protein, part only; not given: Albumin and CD3 binders, linkers, part only)
chain, part: QVQLVESGGGLVQPGGSLRLSCAASGRTFSVRGMAWYRQAGNNRALVATMNPDGFPNYADAVKGRFTISWDIAENTVYLQMNSLNSEDTTVYYCNSGPYWGQGTQVTVSSHHHHHH
B24: MSLN targeting trispecific protein 7C4 (protein, part only; not given: Albumin and CD3 binders, linkers, part only)
chain, part: QVQLVESGGGLVPSGGSLRLSCAASGATSAITNLGWYRRAPGQVREMVARISVREDKEDYEDSVKGRFTISRDNTQNLVYLQMNNLQPHDTAIYYCGAQRWGRGPGTTWGQGTQVTVSSHHHHHH
B25: MSLN targeting trispecific protein 4A2 (protein, part only; not given: Albumin and CD3 binders, linkers, part only)
chain, part: QVQLVESGGGLVQAGGSLRLSCAASGSTFGINAMGWYRQAPGKQRELVAVISRGGSTNYADSVKGRFTISRDNAENTVSLQMNTLKPEDTAVYFCNARTYTRHDYWGQGTQVTVSSHHHHHH
B26: MSLN targeting trispecific protein 3B4 (protein, part only; not given: Albumin and CD3 binders, linkers, part only)
chain, part: QVQLVESGGGLVQAGGSLRLSCVASGSTSNINNMRWYRQAPGKERELVAVITRGGYAIYLDAVKGRFTISRDNANNAIYLEMNSLKPEDTAVYVCNADRVEGTSGGPQLRDYFGQGTQVTVSSHHHHHH
B27: MSLN targeting trispecific protein 2A2 (protein, part only; not given: Albumin and CD3 binders, linkers, part only)
chain, part: QVQLVESGGGLVQAGGSLTLSCAASGSTFSIRAMRWYRQAPGTERDLVAVIYGSSTYYADAVKGRFTISRDNAKNTLYLQMNNLKPEDTAVYYCNADTIGTARDYWGQGTQVTVSSHHHHHH
B28: MSLN targeting trispecific protein 5F2 (protein, part only; not given: Albumin and CD3 binders, linkers, part only)
chain, part: QVQLVESGGGLVQAGGSLRLSCAASGSTFRIRVMRWYRQAPGTERDLVAVISGSSTYYADSVKGRFTISRDNAKNTLYLQMNNLKPEDTAVYYCNADDSGIARDYWGQGTQVTVSSHHHHHH

Bounds are passed on as bounds.

The assay deals with human mesothelin (MSLN) (human) (UniProt Q13421). The experiment in a line: cell-based or functional assay.
Chain of human mesothelin (MSLN) (human) (Q13421 296-606 limits assumed): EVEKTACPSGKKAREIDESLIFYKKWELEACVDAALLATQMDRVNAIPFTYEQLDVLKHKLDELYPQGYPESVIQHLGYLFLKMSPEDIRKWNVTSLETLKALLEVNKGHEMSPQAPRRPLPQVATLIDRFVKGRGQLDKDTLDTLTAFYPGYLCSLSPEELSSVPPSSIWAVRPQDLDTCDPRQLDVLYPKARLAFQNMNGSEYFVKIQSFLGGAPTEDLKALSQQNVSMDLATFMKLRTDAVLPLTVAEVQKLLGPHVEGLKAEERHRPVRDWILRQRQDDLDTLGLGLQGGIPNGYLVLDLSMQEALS
Take B1: the TDCC Average EC50 [M], OVCAR8 cells, human T cells was 1.4e-11 M.
Next, B2: 1.1e-12 M; B3: 1.4e-12 M; B4: 1.5e-12 M.
As to B5, the TDCC Average EC50 [M], OVCAR8 cells, human T cells was found to be 5.5e-12 M.
Next, B6: 2e-09 M; B7: 4e-09 M.
For B8, the TDCC Average EC50 [M], OVCAR8 cells, human T cells was determined as 1.9e-09 M.
Next, B9: 8.2e-10 M.
Next, B10: 1.2e-09 M.
In turn, B11 gave a TDCC Average EC50 [M], OVCAR8 cells, human T cells above 1e-07 M.
Next, B12: 2.2e-12 M; B13: 5.9e-12 M.
Then B14, with 9.5e-09 M; and B15, with 2.4e-12 M; and B16, with 7.3e-13 M.
Then B17, with 5.2e-11 M.
With B18, the TDCC Average EC50 [M], OVCAR8 cells, human T cells came out at 8e-13 M.
Then B19, with 1.1e-09 M; and B20, with 1e-09 M.
Next, B21: 3.6e-09 M; B22: 2.4e-08 M.
Then B23, with above 1e-07 M.
The molecule B24 gave a TDCC Average EC50 [M], OVCAR8 cells, human T cells of 1e-08 M.
Next, B25: 1.7e-09 M; B26: 1.8e-12 M.
Then B27, with 1.6e-12 M; and B28, with 5.3e-12 M.

Values taken from US20200289646A1.
